This passage reports 8-oxoG•[O] repair efficiency (average fold-change in MFI of EGFP+ cells compared to that of unedited HEK293T cells), homozygous W131* clones (fold of unedited HEK293T cells), 8-oxoG•[O] repair efficiency (average fold-change in MFI of EGFP+ cells compared to that of unedited HEK293T cells), homozygous D271G clones (fold of unedited HEK293T cells) and APE1 signal relative to MUTYH in the MUTYH immunoprecipitate, normalised to wild type (relative to wild-type levels) results from PMC11952967.

For test [1], the target named is MUTYH W131* (c.309G > A) (human (endogenous in HEK293T)).
For test [2], the target named is MUTYH D271G (c.728A > G) (human (endogenous in HEK293T)).
Sequence of MUTYH D271G (c.728A > G) (human (endogenous in HEK293T)) (Q9UIF7 whole entry, stated change not applied): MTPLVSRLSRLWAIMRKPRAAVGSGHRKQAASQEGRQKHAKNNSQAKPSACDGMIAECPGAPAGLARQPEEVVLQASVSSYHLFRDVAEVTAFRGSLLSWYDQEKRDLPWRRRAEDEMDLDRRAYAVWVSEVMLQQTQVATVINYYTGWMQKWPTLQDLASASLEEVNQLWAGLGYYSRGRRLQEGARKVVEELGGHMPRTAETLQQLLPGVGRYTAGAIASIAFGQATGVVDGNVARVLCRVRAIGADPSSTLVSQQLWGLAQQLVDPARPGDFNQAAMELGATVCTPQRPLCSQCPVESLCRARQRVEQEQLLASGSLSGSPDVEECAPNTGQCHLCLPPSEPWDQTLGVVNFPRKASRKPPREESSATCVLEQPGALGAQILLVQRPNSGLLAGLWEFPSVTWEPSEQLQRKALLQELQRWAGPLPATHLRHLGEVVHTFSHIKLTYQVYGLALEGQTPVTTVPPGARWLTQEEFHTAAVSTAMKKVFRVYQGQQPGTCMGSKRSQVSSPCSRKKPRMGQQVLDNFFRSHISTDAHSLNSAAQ
The target in test [3] is MUTYH L296L (c.802C > T) (human (endogenous in HEK293T)). The test can be described thus: co-IP; MUTYH immunoprecipitated with MUTYH (C-6) antibody on Protein G Dynabeads from nuclear extract of wild-type or homozygous mutant HEK293T cells treated with 0.5 mM H2O2 for 1 h; 1 h at 4°C in PBST; blotted for APE1; APE1 signal quantified relative to MUTYH and normalised to unedited cells.
Sequence of MUTYH L296L (c.802C > T) (human (endogenous in HEK293T)) (Q9UIF7 whole entry): as the sequence (Q9UIF7 whole entry, stated change not applied) above

Test [4] deals with MUTYH W131* (c.309G > A) (human (endogenous in HEK293T)). The test is described as above.
Test [5] addresses MUTYH L111P (c.248T > C) (human (endogenous in HEK293T)). The description is as above.
Test [6] has as its target MUTYH D271G (c.728A > G) (human (endogenous in HEK293T)). The description is as above.

Sequence of MUTYH L111P (c.248T > C) (human (endogenous in HEK293T)) (Q9UIF7 whole entry, stated change not applied): as above

Turning to “APE1 (apurinic/apyrimidinic endodeoxyribonuclease 1) (from UniProt P27695 1-318) (enzyme)”, the 8-oxoG•[O] repair efficiency (average fold-change in MFI of EGFP+ cells compared to that of unedited HEK293T cells), homozygous W131* clones (fold of unedited HEK293T cells) in test [1] came out at 0.34. Also, the 8-oxoG•[O] repair efficiency (average fold-change in MFI of EGFP+ cells compared to that of unedited HEK293T cells), homozygous D271G clones (fold of unedited HEK293T cells) in test [2] is 0.56. Besides, the APE1 signal relative to MUTYH in the MUTYH immunoprecipitate, normalised to wild type (relative to wild-type levels) in test [3] worked out at 0.8; in test [4] it was 0.21; in test [5] it was 0.82; in test [6], 0.29.
